Experiments:
4H2466-AA = molecular target: T1, 4H2466-AA; experiment: two-hybrid library CCmax; settings: mean of both orientations;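 note: natural log of median RNA to DNA barcode read ratio; higher means stronger binding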
T1 chain: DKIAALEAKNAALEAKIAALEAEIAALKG

4H2592-AA = molecular target: T2, 4H2592-AA; experiment: two-hybrid library CCmax; settings: mean of both orientations;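 note: natural log of median RNA to DNA barcode read ratio; higher means stronger binding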
T2 chain: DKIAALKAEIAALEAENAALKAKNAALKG

4H2931-AA = molecular target: T3, 4H2931-AA; experiment: two-hybrid library CCmax; settings: mean of both orientations;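 note: natural log of median RNA to DNA barcode read ratio; higher means stronger binding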
T3 chain: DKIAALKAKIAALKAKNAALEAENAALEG

4H452-AA = molecular target: T4, 4H452-AA; experiment: two-hybrid library CCmax; settings: mean of both orientations;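 note: natural log of median RNA to DNA barcode read ratio; higher means stronger binding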
T4 chain: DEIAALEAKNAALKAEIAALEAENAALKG

4H2512-AA = molecular target: T5, 4H2512-AA; experiment: two-hybrid library CCmax;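 note: natural log of median RNA to DNA barcode read ratio; higher means stronger binding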
T5 chain: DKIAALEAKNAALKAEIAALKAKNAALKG

GCN2_T = experiment: two-hybrid library CCmax;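 note: natural log of median RNA to DNA barcode read ratio; higher means stronger binding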
4H_GCN4 = experiment: two-hybrid library CCmax
4H_GCN4, sequence (chain, as listed by the source): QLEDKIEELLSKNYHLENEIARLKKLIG

4H2124-AA = molecular target: T6, 4H2124-AA; experiment: two-hybrid library CCmax; settings: mean of both orientations
T6 chain: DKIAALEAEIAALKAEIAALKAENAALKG

4H3001-AA = molecular target: T7, 4H3001-AA; experiment: two-hybrid library CCmax; settings: mean of both orientations
T7 chain: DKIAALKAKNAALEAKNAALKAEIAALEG

4H3438-AA = molecular target: T8, 4H3438-AA; experiment: two-hybrid library CCmax; settings: mean of both orientations
T8 chain: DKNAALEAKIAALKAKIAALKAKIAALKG

4H_BCR = molecular target: T9, 4H_BCR; experiment: two-hybrid library CCmax; settings: mean of both orientations
T9 chain: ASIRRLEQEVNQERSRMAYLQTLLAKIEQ

4H2253-AA = molecular target: T10, 4H2253-AA; experiment: two-hybrid library CCmax; settings: mean of both orientations
T10 chain: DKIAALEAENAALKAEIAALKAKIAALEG

4H249-AA = molecular target: T11, 4H249-AA; experiment: two-hybrid library CCmax; settings: mean of both orientations
T11 chain: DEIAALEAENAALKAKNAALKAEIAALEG

4H3015-AA = molecular target: T12, 4H3015-AA; experiment: two-hybrid library CCmax; settings: mean of both orientations
T12 chain: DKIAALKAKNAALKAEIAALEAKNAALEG

4H56-AA = molecular target: T13, 4H56-AA; experiment: two-hybrid library CCmax; settings: mean of both orientations
T13 chain: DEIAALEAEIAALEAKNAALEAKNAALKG

4H2165-AA = molecular target: T14, 4H2165-AA; experiment: two-hybrid library CCmax; settings: mean of both orientations
T14 chain: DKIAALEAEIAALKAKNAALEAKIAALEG

4H_APH = molecular target: T15, 4H_APH; experiment: two-hybrid library CCmax
T15 chain: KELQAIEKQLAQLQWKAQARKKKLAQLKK

4H2732-AA = molecular target: T16, 4H2732-AA; experiment: two-hybrid library CCmax; settings: mean of both orientations
T16 chain: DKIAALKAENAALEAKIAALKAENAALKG

4H2343-AA = molecular target: T17, 4H2343-AA; experiment: two-hybrid library CCmax; settings: mean of both orientations
T17 chain: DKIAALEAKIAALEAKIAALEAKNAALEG

4H2330-AA = molecular target: T18, 4H2330-AA; experiment: two-hybrid library CCmax; settings: mean of both orientations
T18 chain: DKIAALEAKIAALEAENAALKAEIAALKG

4H2774-AA = molecular target: T19, 4H2774-AA; experiment: two-hybrid library CCmax; settings: mean of both orientations
T19 chain: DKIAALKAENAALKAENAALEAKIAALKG

4H3073-AA = molecular target: T20, 4H3073-AA; experiment: two-hybrid library CCmax; settings: mean of both orientations
T20 chain: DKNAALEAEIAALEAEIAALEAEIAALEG

4H347-AA = molecular target: T21, 4H347-AA; experiment: two-hybrid library CCmax; settings: mean of both orientations
T21 chain: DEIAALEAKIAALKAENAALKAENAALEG

4H406-AA = molecular target: T22, 4H406-AA; experiment: two-hybrid library CCmax; settings: mean of both orientations
T22 chain: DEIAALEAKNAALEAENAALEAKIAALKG

4H1930-AA = molecular target: T23, 4H1930-AA; experiment: two-hybrid library CCmax
T23 chain: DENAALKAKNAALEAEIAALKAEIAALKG

4H850-bN = molecular target: T24, 4H850-bN; experiment: two-hybrid library CCNG1
T24 chain: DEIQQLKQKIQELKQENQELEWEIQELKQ

4H1710-bN = molecular target: T25, 4H1710-bN; experiment: two-hybrid library CCNG1
T25 chain: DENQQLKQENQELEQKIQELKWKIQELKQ

4H1985-bN = molecular target: T26, 4H1985-bN; experiment: two-hybrid library CCNG1
T26 chain: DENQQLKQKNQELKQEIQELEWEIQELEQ

4H570-bN = molecular target: T27, 4H570-bN; experiment: two-hybrid library CCNG1
T27 chain: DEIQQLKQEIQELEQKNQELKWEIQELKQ

4H3858-bN = molecular target: T28, 4H3858-bN; experiment: two-hybrid library CCNG1
T28 chain: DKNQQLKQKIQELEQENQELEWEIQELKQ

4H3462-bN = molecular target: T29, 4H3462-bN; experiment: two-hybrid library CCNG1
T29 chain: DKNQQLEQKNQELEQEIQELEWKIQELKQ

4H3277-bN = molecular target: T30, 4H3277-bN; experiment: two-hybrid library CCNG1
T30 chain: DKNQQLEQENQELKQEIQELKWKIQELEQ

4H906-bN = molecular target: T31, 4H906-bN; experiment: two-hybrid library CCNG1
T31 chain: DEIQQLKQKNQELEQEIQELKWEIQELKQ

4H3175-bN = molecular target: T32, 4H3175-bN; experiment: two-hybrid library CCNG1
T32 chain: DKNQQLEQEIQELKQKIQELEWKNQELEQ

4H591-bN = molecular target: T33, 4H591-bN; experiment: two-hybrid library CCNG1
T33 chain: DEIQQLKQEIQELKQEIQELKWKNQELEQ

4H3974-bN = molecular target: T34, 4H3974-bN; experiment: two-hybrid library CCNG1
T34 chain: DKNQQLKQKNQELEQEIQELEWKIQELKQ

4H1899-bN = molecular target: T35, 4H1899-bN; experiment: two-hybrid library CCNG1
T35 chain: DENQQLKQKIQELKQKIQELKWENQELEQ

4H3162-bN = molecular target: T36, 4H3162-bN; experiment: two-hybrid library CCNG1
T36 chain: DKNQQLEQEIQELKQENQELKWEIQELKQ

4H626-bN = molecular target: T37, 4H626-bN; experiment: two-hybrid library CCNG1
T37 chain: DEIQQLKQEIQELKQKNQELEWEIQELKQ

4H3497-bN = molecular target: T38, 4H3497-bN; experiment: two-hybrid library CCNG1
T38 chain: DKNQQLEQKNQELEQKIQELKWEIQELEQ

4H3926-bN = molecular target: T39, 4H3926-bN; experiment: two-hybrid library CCNG1
T39 chain: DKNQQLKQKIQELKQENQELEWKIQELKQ

4H918-bN = molecular target: T40, 4H918-bN; experiment: two-hybrid library CCNG1
T40 chain: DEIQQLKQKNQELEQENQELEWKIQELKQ

4H3298-bN = molecular target: T41, 4H3298-bN; experiment: two-hybrid library CCNG1
T41 chain: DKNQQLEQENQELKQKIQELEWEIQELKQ

4H3628-bN = molecular target: T42, 4H3628-bN; experiment: two-hybrid library CCNG1
T42 chain: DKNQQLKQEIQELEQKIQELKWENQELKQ

4H1544-bN = molecular target: T43, 4H1544-bN; experiment: two-hybrid library CCNG1
T43 chain: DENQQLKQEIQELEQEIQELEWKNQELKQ

4H3613-bN = molecular target: T44, 4H3613-bN; experiment: two-hybrid library CCNG1
T44 chain: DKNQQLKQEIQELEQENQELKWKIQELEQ

4H3817-bN = molecular target: T45, 4H3817-bN; experiment: two-hybrid library CCNG1
T45 chain: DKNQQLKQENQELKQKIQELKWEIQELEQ

## DENAALKAKNAALEAEIAALKAEIAALKG [4H1930-AA]
4H2466-AA
  interaction score: -1.3
4H2592-AA
  interaction score: -1.46
4H2931-AA
  interaction score: -1.91
4H452-AA
  interaction score: -1.51
4H2512-AA
  interaction score: -3.66
GCN2_T
  interaction score: -1.22
4H_GCN4
  interaction score: -1.23
4H2124-AA
  interaction score: -1.14
4H3001-AA
  interaction score: -1.62
4H3438-AA
  interaction score: -1.3
4H_BCR
  interaction score: -1.93
4H2253-AA
  interaction score: -1.35
4H249-AA
  interaction score: -1.82
4H3015-AA
  interaction score: -1.72
4H56-AA
  interaction score: -2.31
4H2165-AA
  interaction score: -1.35
4H_APH
  interaction score: -1.06
4H2732-AA
  interaction score: -1.87
4H2343-AA
  interaction score: -1.34
4H2330-AA
  interaction score: -1.7
4H2774-AA
  interaction score: -1.57
4H3073-AA
  interaction score: -0.77
4H347-AA
  interaction score: -1.32
4H406-AA
  interaction score: -1.92
4H1930-AA
  interaction score: 1.78

## DENQQLKQEIQELEQEIQELEWKNQELKQ [4H1544-bN]
4H850-bN
  interaction score: 0.669
4H1710-bN
  interaction score: 1.41
4H1985-bN
  interaction score: -0.277
4H570-bN
  interaction score: -0.108
4H3858-bN
  interaction score: -0.293
4H3462-bN
  interaction score: 1.08
4H3277-bN
  interaction score: -0.11
4H906-bN
  interaction score: -0.343
4H3175-bN
  interaction score: 0.167
4H591-bN
  interaction score: -0.583
4H3974-bN
  interaction score: -0.0151
4H1899-bN
  interaction score: 1.82
4H3162-bN
  interaction score: -1.96
4H626-bN
  interaction score: -1.03
4H3497-bN
  interaction score: 0.211
4H3926-bN
  interaction score: -0.652
4H918-bN
  interaction score: -0.127
4H3298-bN
  interaction score: -0.192
4H3628-bN
  interaction score: 0.019
4H1544-bN
  interaction score: -2.02
4H3613-bN
  interaction score: -1.07
4H3817-bN
  interaction score: -0.351
